{"source": "paper PMC6638984", "about": "“Increased association between Epstein-Barr virus EBNA2 from type 2 strains and the transcriptional repressor BS69 restricts EBNA2 activity” (PLoS Pathogens, 2019)", "key": {"[1]": {"target": "BS69 CC-MYND (Homo sapiens) (UniProt Q15326)", "sequence (Q15326 480-602)": "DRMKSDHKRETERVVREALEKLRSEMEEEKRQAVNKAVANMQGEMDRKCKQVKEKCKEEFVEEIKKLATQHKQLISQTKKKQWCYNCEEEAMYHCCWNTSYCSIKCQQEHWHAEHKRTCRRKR", "settings": "cited from earlier work"}, "[2]": {"target": "BS69 coiled-coil MYND domain (BS69_(CC-MYND), amino acids 480-602) (human) (UniProt Q15326)", "sequence (Q15326 480-602)": "as above", "experiment": "ITC; EBNA2 polypeptide titrated into 0.1 mM BS69_(CC-MYND) in the cell, 19 x 2.0 μl injections, 25°C, 20 mM Tris-HCl, 100 mM NaCl, 1 mM TCEP, pH 7.5; one-site (one event) model; n calculated for monomeric proteins"}, "[3]": {"target": "BS69 coiled-coil MYND domain (BS69_(CC-MYND), amino acids 480-602) (human) (UniProt Q15326)", "experiment": "ITC; EBNA2 polypeptide (0.3 or 0.6 mM) titrated into 0.1 mM BS69_(CC-MYND) in the cell, 19 x 2.0 µl injections, 25°C, 20 mM Tris-HCl, 100 mM NaCl, 1 mM TCEP, pH 7.5; one-site (one event) model; n on monomer concentrations; mean of 3 experiments"}}, "data": [{"substance": "EBNA2 type 1 motif 2 peptide motif 2 (from UniProt P12978)", "values": [{"measurement": "Kd", "setting": "[1]", "value": 35, "unit": "µM"}]}, {"substance": "type 1 EBNA2 polypeptide T1 EBNA2_(381-445) (domain or fragment)", "values": [{"measurement": "Kd", "setting": "[2]", "value": 950, "unit": "nM"}, {"measurement": "stoichiometry N", "setting": "[2]", "value": 0.42}]}, {"substance": "type 1 EBNA2 polypeptide T1 EBNA2_(381-455) (domain or fragment)", "values": [{"measurement": "stoichiometry N", "setting": "[3]", "value": 0.38}]}]}
